Assay results reported in article doi:10.1101/2022.04.26.489478, “Shuffled ATG8 interacting motifs form an ancestral bridge between UFMylation and C53-mediated autophagy” (bioRxiv, 2022).

Biological target: T1, mCherry tagged HsC53 (human, UniProt Q96JB5 1-506)
T1 construct: C53 (CDK5RAP3), Homo sapiens; also called human C53; mCh-HsC53; source: E. coli Rosetta2 (DE3) pLysS, purified (HisTrap, ion exchange, SEC)
T1 sequence (looked up): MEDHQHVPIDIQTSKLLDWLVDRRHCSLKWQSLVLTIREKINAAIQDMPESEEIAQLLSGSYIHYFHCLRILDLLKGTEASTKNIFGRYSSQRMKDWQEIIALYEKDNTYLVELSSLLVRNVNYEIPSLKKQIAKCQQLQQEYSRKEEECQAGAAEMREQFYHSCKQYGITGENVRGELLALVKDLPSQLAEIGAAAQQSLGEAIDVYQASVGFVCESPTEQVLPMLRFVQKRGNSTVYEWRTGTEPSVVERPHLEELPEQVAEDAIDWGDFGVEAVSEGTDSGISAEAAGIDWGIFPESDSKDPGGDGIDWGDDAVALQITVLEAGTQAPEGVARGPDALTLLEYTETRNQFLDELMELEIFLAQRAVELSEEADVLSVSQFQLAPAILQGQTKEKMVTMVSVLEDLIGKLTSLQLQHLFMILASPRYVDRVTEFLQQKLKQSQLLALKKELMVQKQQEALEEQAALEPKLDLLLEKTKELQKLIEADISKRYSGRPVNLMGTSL
Assay: microscopy-based on-bead protein-protein interaction assay; GST-tagged bait (2 µM) on Glutathione Sepharose 4B beads, 1 µM mCherry tagged partner with or without competitor, 25 mM HEPES pH 7.5, 150 mM NaCl, 1 mM DTT, 30-60 min at RT, confocal imaging; fluorescence normalized to the control condition
Conditions: both partners purified

B1: GST-GABARAP (natural protein, human, UniProt O95166 1-117, looked up)
chain: MKFVYKEEHPFEKRRSEGEKIRKKYPDRVPVIVEKAPKARIGDLDKKKYLVPSDLTVGQFYFLIRKRIHLRAEDALFFFVNNVIPPTSATMGQLYQEHHEEDFFLYIAYSDESVYGL
notes: GABARAP, human ATG8 isoform; also called human ATG8 isoform GABARAP; source: E. coli Rosetta2 (DE3) pLysS; in bacterial lysate (pull-downs) and purified (on-bead assays)
  binding result: binds
